The values below come from patent US11098102B2, “Insulin conjugates” (SANOFI, priority 2018, dated 2021).

Series [1] deals with T1, immobilized human serum albumin (Homo sapiens, UniProt P02768).
T1 construct: purchased Chiralpak (Chiraltech) 34712
Put plainly: Albumin binding: affinity chromatography on columns with immobilized human serum albumin (net retention time). Conditions: isolated binders; HSA column 25° C., PBS pH 7.4/isopropanol gradient. The protocol:
In order to identify suitable binder molecules, which when bound to a peptide, such as an insulin, are able to improve the half-life in plasma and to prolong the profile of action, a system was established based on affinity chromatography with serum albumin columns, i.e. columns with immobilized serum albumin.
The net retention time of the binders (samples) was calculated according to the following formula: Net retention time=RetTimeSample−RetTimet0 marker
• Instrument: Waters Alliance 2795/Waters PDA 2996 or Waters H-Class UPLC equipped with a Waters Acquity photodiode-array detector • Software: Waters Empower 3 • Column: […]® HSA 50×4 mm; 5 μm Particle size • Chiraltech Order Numbers: HSA: 34712 • Eluent A: Phosphate Buffer saline (PBS) at pH=7.4 • Gibco PBS pH7.4 (10×) Phosphate Buffered Saline 500 ml; • Order Number: 70011-036 (500 ml) • Eluent B: Isopropanol • Fisher Order Number: A461-1 (10 • Gradient:
• Column temperature: 25° C. • Flow rate: 1.0 ml/min • Detection: λ=220 nm • Injection volume: 20 μL • Sample Conc.: 1 mg/ml insulin solution in PBS for insulin samples • 5 μL of 10 mM DMSO stock solution (DMSO evaporated and re-dissolved in 200 μL i-propanol/water 1:1 v/v) for isolated binder samples (250 μM, 0.2 mg/ml at 800 Da MolWeight) • t0 marker Sodium Nitrate (NaNO3) solution in water, 0.05 mg/ml • Diluted from aqueous 1 mg/ml stock solution (Fluka Order Number: 74246-100ML) • Reported Value Net retention time of sample: RetTime Sample−RetTime t0 marker
Affinity chromatography was carried out i) for insulin conjugates according to Examples 3.3 and 3.4 on a Waters Alliance Separation Module 2695 equipped with a Waters photodiode-array detector 2996 or Waters H-Class UPLC equipped with a Waters Acquity photodiode-array detector and ii) for isolated binders according to Example 2.11 on a Waters Alliance Separation Module 2795 equipped with a Waters photodiode-array detector 2996 or Waters H-Class UPLC equipped with a Waters Acquity photodiode-array detector.
Columns with immobilized human serum albumin (50×4 mm; 5 μm particle size) were purchased from Chiralpak and used for separations.
The columns with immobilized serum albumin were kept at 25° C. during the LC run, UV detection was carried out at 220 nm and injection volume was 20 μL.
The net retention time of the samples was reported according to Net retention time=RetTime Sample−RetTime t0 marker

Series [2] addresses T2, simulated gastric fluid (pepsin) (Sus scrofa, UniProt P00791).
T2 construct: from tissue; host or cells: porcine stomach mucosa
Put plainly: In vitro stability in simulated gastric fluid (Example 9). It is filed as in vitro ADME, porcine. Conditions: 37° C., 2 μM.
Protocol: Two grams of sodium chloride and 3.2 g of purified pepsin (from porcine stomach mucosa, with an activity of 800 to 2500 units per mg of protein) were dissolved in 7.0 ml of hydrochloric acid. The volume was adjusted with water up to 1000 ml.
(§1) The stability determination was done using appropriate time points (for SIF and SGF 15, 30, 60, 120 and 240 minutes; for proteases 15, 30, 60 and 120 minutes). The incubation was done at 37° C. and the % of remaining parent compound was calculated in reference to a TO time point.
(§2) For the determination of the parent compound an appropriate bioanalytical LC-MS/MS or LC-HRMS method was used, using the supernatant, after protein precipitation with ethanol (1 eq. v/v) and a centrifugation step.
(§3) Compounds were dissolved in diluted hydrochloric acid at a final concentration of 40 μM. The compound concentration in the assay was 2 μM. A 1:20 dilution of the working solution was done into the protease buffer and samples are then incubated at 37° C., under stirring. At the appropriate time point and aliquot was taken, the reaction was quenched ethanol (1 eq. v/v), than centrifuged. The supernatant was analyzed.

The target of the next series is α-Chymotrypsin (Bos taurus, UniProt P00766). Put plainly: In vitro proteolytic stability against α-chymotrypsin (Example 9). It counts as in vitro ADME. The settings on record: 37° C., 2 μM.
The target in a further series is Cathepsin D (Homo sapiens, UniProt P07339). The series is described as follows: In vitro proteolytic stability against cathepsin D (Example 9). It is filed as in vitro ADME. Conditions: 37° C., 2 μM.
Series [3] concerns the target Insulin degrading enzyme, IDE (Homo sapiens, UniProt P14735). The series is described as follows: In vitro proteolytic stability against insulin degrading enzyme (Example 9). It is filed as in vitro ADME. Conditions: 37° C., 2 μM.
Protocol: as §1, §2, §3
The target of series [4] is T3, insulin receptor isoform B (IR-B) (Homo sapiens, UniProt P06213). Put plainly: Insulin receptor autophosphorylation assay (In-Cell Western, CHO cells, Example 8B). It counts as cell-based. Details: expressed in transfected cells; host or cells: CHO cells. Conditions: relative to human insulin.
The target in series [5] is T3, insulin receptor isoform B (IR-B). Put plainly: Insulin receptor binding affinity assay of insulin analogs (Example 8A, SPA competition binding). Conditions: relative to human insulin; a value of 0 means below the detection limit. Details: expressed in transfected cells; host or cells: CHO cells overexpressing the IR; isolated plasma membranes. The protocol: Methods for determining the binding affinity of an insulin analog to an insulin receptor are well known in the art. […] The insulin receptor can be present in a membrane of a cell, e.g. of CHO (Chinese Hamster Ovary) cell, which overexpresses a recombinant insulin receptor. In an embodiment, the insulin receptor binding affinity is determined as described in the Examples section.
Insulin receptor binding affinity for the analogs listed in Table 4 was determined as described in Hartmann et al. (Effect of the long-acting insulin analogs glargine and degludec on cardiomyocyte cell signaling and function. Cardiovasc Diabetol. 2016; 15:96). Isolation of insulin receptor embedded plasma membranes (M-IR) and competition binding experiments were performed as previously described (Sommerfeld et al., PLoS One. 2010; 5 (3): e9540). Briefly, CHO-cells overexpressing the IR were collected and re-suspended in ice-cold 2.25 STM buffer (2.25 M sucrose, 5 mM Tris-HCl pH 7.4, 5 mM MgCl2, complete protease inhibitor) and disrupted using a Dounce homogenizer followed by sonication. The homogenate was overlaid with 0.8 STM buffer (0.8 M sucrose, 5 mM Tris-HCl pH 7.4, 5 mM MgCl2, complete protease inhibitor) and ultra-centrifuged for 90 min at 100,000 g. Plasma membranes at the interface were collected and washed twice with phosphate buffered saline (PBS). The final pellet was re-suspended in dilution buffer (50 mM Tris-HCl pH 7.4, 5 mM MgCl2, complete protease inhibitor) and again homogenized with a Dounce homogenizer. Competition binding experiments were performed in a binding buffer (50 mM Tris-HCl, 150 mM NaCl, 0.1% BSA, complete protease inhibitor, adjusted to pH 7.8) in 96-well microplates. In each well 2 μg isolated membrane was incubated with 0.25 mg wheat germ agglutinin polyvinyltoluene polyethylenimine scintillation proximity assay (SPA) beads. […] The radioactivity was measured at equilibrium in a microplate scintillation counter (Wallac Microbeta, Freiburg, Germany).”

T1 sequence (P02768 25-609): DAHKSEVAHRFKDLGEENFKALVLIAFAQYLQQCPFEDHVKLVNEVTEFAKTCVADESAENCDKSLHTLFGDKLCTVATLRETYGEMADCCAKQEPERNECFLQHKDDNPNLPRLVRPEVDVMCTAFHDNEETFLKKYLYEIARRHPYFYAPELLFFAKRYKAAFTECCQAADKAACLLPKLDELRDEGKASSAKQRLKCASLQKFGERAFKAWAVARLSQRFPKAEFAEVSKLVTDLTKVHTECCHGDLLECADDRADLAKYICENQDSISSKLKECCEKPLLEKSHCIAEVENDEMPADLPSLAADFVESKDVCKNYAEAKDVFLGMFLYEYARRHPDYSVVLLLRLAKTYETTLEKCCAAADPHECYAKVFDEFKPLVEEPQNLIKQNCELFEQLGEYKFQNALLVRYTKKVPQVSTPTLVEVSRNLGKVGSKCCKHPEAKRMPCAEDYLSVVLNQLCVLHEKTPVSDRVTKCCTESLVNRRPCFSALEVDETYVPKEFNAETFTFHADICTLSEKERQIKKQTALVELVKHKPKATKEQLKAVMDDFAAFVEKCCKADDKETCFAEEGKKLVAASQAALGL
T3 sequence (P06213 28-758 limits assumed): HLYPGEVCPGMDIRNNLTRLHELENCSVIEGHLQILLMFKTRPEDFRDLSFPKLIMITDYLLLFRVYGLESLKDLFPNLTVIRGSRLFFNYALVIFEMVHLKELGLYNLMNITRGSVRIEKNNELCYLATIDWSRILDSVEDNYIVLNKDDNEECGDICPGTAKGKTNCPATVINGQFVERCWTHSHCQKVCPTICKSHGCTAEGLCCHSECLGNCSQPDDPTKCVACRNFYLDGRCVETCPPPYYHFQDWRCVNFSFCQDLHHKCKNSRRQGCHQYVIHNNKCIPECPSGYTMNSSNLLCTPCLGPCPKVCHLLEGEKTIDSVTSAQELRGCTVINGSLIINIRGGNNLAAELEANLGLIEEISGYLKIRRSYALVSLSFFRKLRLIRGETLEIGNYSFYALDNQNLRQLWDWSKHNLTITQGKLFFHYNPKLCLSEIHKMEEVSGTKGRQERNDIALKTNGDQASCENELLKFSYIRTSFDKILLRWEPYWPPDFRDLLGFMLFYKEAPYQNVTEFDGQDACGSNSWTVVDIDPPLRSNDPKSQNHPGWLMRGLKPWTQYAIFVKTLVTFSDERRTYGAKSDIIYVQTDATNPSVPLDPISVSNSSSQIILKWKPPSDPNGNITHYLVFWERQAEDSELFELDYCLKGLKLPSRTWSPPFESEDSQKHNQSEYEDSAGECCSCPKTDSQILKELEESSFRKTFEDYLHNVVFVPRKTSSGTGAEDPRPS
T3 sequence (P06213 763-1382 limits assumed): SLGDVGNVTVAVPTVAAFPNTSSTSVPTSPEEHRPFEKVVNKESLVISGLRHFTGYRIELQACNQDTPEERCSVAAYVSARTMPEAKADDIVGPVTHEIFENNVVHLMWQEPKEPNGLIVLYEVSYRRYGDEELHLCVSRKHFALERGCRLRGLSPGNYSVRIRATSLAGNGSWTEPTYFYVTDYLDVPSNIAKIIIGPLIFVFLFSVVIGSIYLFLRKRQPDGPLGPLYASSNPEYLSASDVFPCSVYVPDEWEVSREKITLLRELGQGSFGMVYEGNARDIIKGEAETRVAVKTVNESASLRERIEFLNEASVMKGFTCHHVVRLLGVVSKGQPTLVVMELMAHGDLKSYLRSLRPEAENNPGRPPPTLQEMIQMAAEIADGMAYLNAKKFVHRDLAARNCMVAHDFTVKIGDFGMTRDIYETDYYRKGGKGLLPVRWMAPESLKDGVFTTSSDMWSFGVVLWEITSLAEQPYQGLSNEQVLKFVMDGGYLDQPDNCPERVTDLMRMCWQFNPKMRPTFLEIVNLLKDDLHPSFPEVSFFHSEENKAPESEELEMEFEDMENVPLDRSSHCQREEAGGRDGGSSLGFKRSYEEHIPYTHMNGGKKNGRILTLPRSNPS
T2 sequence (P00791 60-385): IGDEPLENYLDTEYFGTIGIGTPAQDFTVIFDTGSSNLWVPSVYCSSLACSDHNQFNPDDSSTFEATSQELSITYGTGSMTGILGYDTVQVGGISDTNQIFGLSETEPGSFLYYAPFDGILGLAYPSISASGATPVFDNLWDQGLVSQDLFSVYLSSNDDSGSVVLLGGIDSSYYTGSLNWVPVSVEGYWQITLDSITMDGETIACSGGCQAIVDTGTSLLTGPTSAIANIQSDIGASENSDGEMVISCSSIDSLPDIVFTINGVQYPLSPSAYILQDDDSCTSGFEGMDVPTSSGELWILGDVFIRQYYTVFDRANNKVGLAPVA
Cathepsin D, sequence (P07339 65-412, species assumed): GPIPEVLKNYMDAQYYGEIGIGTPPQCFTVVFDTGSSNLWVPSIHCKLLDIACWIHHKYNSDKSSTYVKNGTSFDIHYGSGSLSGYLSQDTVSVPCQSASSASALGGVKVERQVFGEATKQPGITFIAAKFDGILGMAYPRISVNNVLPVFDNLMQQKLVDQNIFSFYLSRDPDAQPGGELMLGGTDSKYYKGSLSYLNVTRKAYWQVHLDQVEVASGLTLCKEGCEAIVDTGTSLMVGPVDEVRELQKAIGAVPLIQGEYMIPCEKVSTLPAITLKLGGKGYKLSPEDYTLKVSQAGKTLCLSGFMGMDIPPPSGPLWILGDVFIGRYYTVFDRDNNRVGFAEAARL
Protocol for Cathepsin D: as §1, §2, §3
Protocol for α-Chymotrypsin: as §1, §2, §3

On to `O=C(O)CCCCCCCCCc1ccc(OCc2ccc(S(=O)(=O)Nc3ccc(C(=O)NCCOCCOCC(=O)NCCOCCOCC(=O)O)cc3)cc2)cc1` [Binder 2], for which the “NRT [min] (net retention time on columns with immobilized human serum albumin)” value (“NRT [min]” for short) in series [1] was 17.88 min. Also, the “Percent remaining insulin analog, Gastric fluid (30 minutes)” value in series [2] is recorded as 0%. Besides, in the series with α-Chymotrypsin, the “Percent remaining insulin analog, α-Chymotrypsin (120 minutes)” value is 35%. In addition, in the series with Cathepsin D, the “Percent remaining insulin analog, Cathepsin D (30 minutes)” value is 0%. Moreover, the “Percent remaining insulin analog, Insulin degrading enzyme, IDE (30 minutes)” value in series [3] is reported as 81%. Moreover, the autophosphorylation activity in series [4] was determined as 0.87. In series [5], this compound showed an Insulin-receptor binding affinity of 1.05.
For `O=C(O)CCCCCCCCCCCCCCOc1ccc(S(=O)(=O)Nc2ccc(C(=O)NCCOCCOCC(=O)NCCOCCOCC(=O)O)cn2)cc1` [Binder 7], in series [1], the “NRT [min]” value was found to be 14.65 min. The “Percent remaining insulin analog, Gastric fluid (30 minutes)” value in series [2] is 30%. Further, the “Percent remaining insulin analog, α-Chymotrypsin (120 minutes)” value in the series with α-Chymotrypsin came to 58%. Also, in the series with Cathepsin D, the “Percent remaining insulin analog, Cathepsin D (30 minutes)” value was 52%. For the same compound, the “Percent remaining insulin analog, Insulin degrading enzyme, IDE (30 minutes)” value in series [3] came out at 2%. In addition, the autophosphorylation activity in series [4] is reported as 0.2. In addition, the Insulin-receptor binding affinity in series [5] amounted to 0.05.
For the compound `O=C(O)CCCCCCCCCCCCCc1ccc(CCOc2ccc(S(=O)(=O)Nc3ncc(C(=O)NCCOCCOCC(=O)NCCOCCOCC(=O)O)cn3)cc2)cc1` [Binder 12], the “NRT [min]” value in series [1] is given as 14.95 min. In addition, the “Percent remaining insulin analog, Gastric fluid (30 minutes)” value in series [2] is 44%. The “Percent remaining insulin analog, α-Chymotrypsin (120 minutes)” value with α-Chymotrypsin worked out at 31%. Further, the “Percent remaining insulin analog, Cathepsin D (30 minutes)” value with Cathepsin D is on record as 43%. The “Percent remaining insulin analog, Insulin degrading enzyme, IDE (30 minutes)” value in series [3] is 11%. For the same compound, the autophosphorylation activity in series [4] was 0.06. This compound came in with an Insulin-receptor binding affinity in series [5] of 0.01.
On to `O=C(O)CCCCCCCCCOc1ccc(S(=O)(=O)Nc2ccc(C(=O)NCCOCCOCC(=O)NCCOCCOCC(=O)O)cn2)cc1` [Binder 19], for which the “NRT [min]” value in series [1] turned out to be 10.82 min. In addition, the “Percent remaining insulin analog, Gastric fluid (30 minutes)” value in series [2] is 0%. The “Percent remaining insulin analog, α-Chymotrypsin (120 minutes)” value in the series with α-Chymotrypsin was 30%. Further, the “Percent remaining insulin analog, Cathepsin D (30 minutes)” value in the series with Cathepsin D is 0%. Besides, in series [3], the “Percent remaining insulin analog, Insulin degrading enzyme, IDE (30 minutes)” value came to 98%. The autophosphorylation activity in series [4] came out at 0.32.
Regarding `O=C(O)CCCCCCCCCCCCCc1cc(Oc2ccc(S(=O)(=O)Nc3ccc(C(=O)NCCOCCOCC(=O)NCCOCCOCC(=O)O)cn3)cc2)ccc1F` [Binder 22], the “NRT [min]” value in series [1] is 15.55 min. Besides, the “Percent remaining insulin analog, Gastric fluid (30 minutes)” value in series [2] is recorded as 52%. Further, in the series with α-Chymotrypsin, the “Percent remaining insulin analog, α-Chymotrypsin (120 minutes)” value turned out to be 99%. The “Percent remaining insulin analog, Cathepsin D (30 minutes)” value in the series with Cathepsin D amounted to 20%. Also, the “Percent remaining insulin analog, Insulin degrading enzyme, IDE (30 minutes)” value in series [3] was determined as 77%. Also, the autophosphorylation activity in series [4] worked out at 0.04. Moreover, the Insulin-receptor binding affinity in series [5] is recorded as 0.01.
With `O=C(O)CCCCCCCCCCCc1cc(Oc2ccc(S(=O)(=O)Nc3ccc(C(=O)NCCOCCOCC(=O)NCCOCCOCC(=O)O)cn3)cc2)ccc1F` [Binder 24], in series [1], the “NRT [min]” value was 15.76 min. The “Percent remaining insulin analog, Gastric fluid (30 minutes)” value in series [2] is 52%. Besides, the “Percent remaining insulin analog, α-Chymotrypsin (120 minutes)” value with α-Chymotrypsin is 40%. Also, the “Percent remaining insulin analog, Cathepsin D (30 minutes)” value with Cathepsin D came out at 59%. Further, the “Percent remaining insulin analog, Insulin degrading enzyme, IDE (30 minutes)” value in series [3] is given as 86%. The same compound yielded an autophosphorylation activity in series [4] of 0.04. Further, the Insulin-receptor binding affinity in series [5] was found to be 0.01.
In the case of `O=C(O)CCCCCCCCCCCCCCCOc1ccc(S(=O)(=O)Nc2ncc(C(=O)NCCOCCOCC(=O)NCCOCCOCC(=O)O)cn2)cc1F` [Binder 38], the “NRT [min]” value in series [1] amounted to 13.53 min. Also, in series [2], the “Percent remaining insulin analog, Gastric fluid (30 minutes)” value is recorded as 36%. Moreover, in the series with α-Chymotrypsin, the “Percent remaining insulin analog, α-Chymotrypsin (120 minutes)” value came out at 34%. Also, the “Percent remaining insulin analog, Cathepsin D (30 minutes)” value with Cathepsin D worked out at 62%. Besides, the “Percent remaining insulin analog, Insulin degrading enzyme, IDE (30 minutes)” value in series [3] was found to be 86%. The compound also had an autophosphorylation activity in series [4] of 0.03. In series [5], this compound came in with an Insulin-receptor binding affinity of 0.
